Results from paper PMC4068993, “Chlamydia pneumoniae CopD Translocator Protein Plays a Critical Role in Type III Secretion (T3S) and Infection” (PLoS ONE, 2014).
Values joined by “and” are separate entries in the source; they are usually repeats but may differ in a detail not shown here. Equal values may be shown once.

Tests used:
[1] = molecular target: Full length His-CopD (Chlamydia pneumoniae CWL029) (UniProt Q9Z798); assay: SEC; co-expressed and Ni-NTA purified His-CopD and LcrH_1-S-tag (300 µL, 4.5 mg/mL), Superdex S200 10/300 GL, PBS + 0.03% LDAO, 0.5 mL/min; fractions blotted with anti-His and anti-S-tag; sizes from column standards
[2] = molecular target: the molecule itself; assay: as above

LcrH_1-S-tag (natural protein)
stoichiometry N (LcrH 1 per CopD) [1]: 1

B1: Full length His-CopD (natural protein)
chain: MTSGVSGSSSQDPTLAAQLAQSSQKAGNAQSGHDTKNVTKQGAQAEVAAGGFEDLIQDASAQSTGKKEATSSTTKSSKGEKSEKSGKSKSSTSVASASETATAQAVQGPKGLRQNNYDSPSLPTPEAQTINGIVLKKGMGTLALLGLVMTLMANAAGESWKASFQSQNQAIRSQVESAPAIGEAIKRQANHQASATEAQAKQSLISGIVNIVGFTVSVGAGIFSAAKGATSALKSASFAKETGASAAGGAASKALTSASSSVQQTMASTAKAATTAASSAGSAATKAAANLTDDMAAAASKMASDGASKASGGLFGEVLNKPNWSEKVSRGMNVVKTQGARVASFAGNALSSSMQMSQLMHGLTAAVEGLSAGQTGIEVAHHQRLAGQAEAQAEVLKQMSSVYGQQAGQAGQLQEQAMQSFNTALQTLQNIADSQTQTTSAIFN
notes: CopD (Cpn0808), Chlamydia pneumoniae CWL029, 444 amino acids (44.5 kDa); Eluted from SEC as decamer, tetramer and monomer; also called Cpn0808; source: E. coli Rosetta pLysS, co-expressed with LcrH_1-S-tag (pET-DUET), purified (Ni-NTA); not shown: 6×His, N-terminal, kept
stoichiometry N [2]: 10 and 4
